Measured values as given in patent US20240043505A1 (UNIVERSITY OF PITTSBURGH OF THE COMMONWEALTH SYSTEM OF …, published 2024).
Changes are numbered by the printed parent chain. Where “and” joins values, the source holds several entries; their conditions need not be identical. Equal values may be shown once.

B1: Nb36 (VHH)
VHH: HVQLVESGGGLVQAGGSLTLTCAASGRTFSSETMDMGWFRQAPGKEREFVAADSWNDGSTYYADSVKGRFTISRDSAKNTLYLQMNSLKPEDTAVYYCAAETYSIYEKDDSWGYWGQGTQVTVSS
B2: Nb20 (VHH)
VHH: QVQLVESGGGLVQAGGSLRLSCAVSGAGAHRVGWFRRAPGKEREFVAAIGASGGMTNYLDSVKGRFTISRDNAKNTIYLQMNSLKPQDTAVYYCAARDIETAEYIYWGQGTQVTVSS
B3: Nb17 (VHH)
VHH: HVQLVESGGGLVQAGGSLRLSCAASGSIFSSNAMSWYRQAPGKQRELVASITSGGNADYADSVKGRFTISRDKNTVYPEMSSLKPADTAVYYCHAVGQEASAYAPRAYWGQGTQVTVSS
B4: Nb64 (VHH)
VHH: QVQLVESGGGLVQAGGSLRLSCAVSGRTFSIAGMGWFRQAPGKDREFLGGITWNDGTTWYADSVKGRFTISRDNAKNMLSLRMNSLKPEDTAVYYCAAGPRLGSTPRAYDYWGQGTQVTVSS
B5: Nb82 (VHH)
VHH: DVQLVESGGGLVQAGGSLGLSCAASGSIFRLTAMGWYRQAPGKQRDLVTTITSAGIPHYADSVKGRFTISRDNAKNTVYLQMNGLKPEDTAVYYCYANTLNSQLLPRAYWGQGTQVTVSS
B6: Nb102 (VHH)
VHH: QVQLVESGGGLVQAGGSLRLSCAASGRTFSNSHMGWFRQAPGKEREFVAVISRSGGSTLYADSVKGRFTISRDNAKNTVYLQMNSLKPEDTAVYYCAASRTAGLTSNRSLYDYWGRGTQVTVSS
B7: Nb107 (VHH)
VHH: HVQLVESGGGLVQAGGSLRLSCAASGRAIGIHRMAWFRQAPGKERAFVAAIQWTGDMPTYADSLKGRFTISADNAKNTVSLQMTSLKPDDTAVYYCAARSATTALYDYWGQGTQVTVSS
B8: Nb99 (VHH)
VHH: QVQLVESGGGLVQTGGSLRLSCAASGSTRSIWYSGWYRQAPGKQRELVASLTSGGTTYYPDSMKGRFTISGSSGLNMVYLQMNSLRPEDTAVYSCNVRTGSGVYWGQGTQVTVSS
B9: Nb48 (VHH)
VHH: HVQLVESGGGLVQAGGSLRLSCAASGSIFRHYNMGWFRQAPGKEREFVSAISWTNIGTYYADSVKGRFSISRDNNRNTAYLEMNSLKPEDTAVYYCAADRSEFGSRLYSDENEYDYWGQGTQVTVSS
B10: Nb92 (VHH)
VHH: HVQLVESGGGLVQAGGSLRLSCAASGRTFSAYGMGWFRQAPGKEREFVAGIARSGSEYYGDSVKGRFTISRDNAKNTVYLQMASLKAEDTGVYYCAADPTILYHALSQRTQNYRYWGPGTQVTVSS
B11: Nb6 (VHH)
VHH: HVQLVESGGGLVQAGGSLRLSCAASGRTFSTHATGWFRQAPGKEREFLATSVWLDDISRDSTYYAESVKGRFSISRDNAKDTVYLQMNSLKPEDTAVYYCAVKQRVGPGIMSAPTYDYWGQGTQVTVSS
B12: Nb9 (VHH)
VHH: HVQLVESGGGLVQTGGSLRLSCAFSGYTFSTFPTAWFRQAPGKEREFVAGIRWNGGSRDYTEYADFVKGRFTISRDNAKNMIYLQMISLKPEDTALYYCAASHGVVDGTSVNGYRYWGQGTQVTVSS
B13: Nb28 (VHH)
VHH: B1 VHH with T19R, T21S, S31T, E32S, A51G, S59R, S76N, S87N, I105L, D109S
B14: Nb16 (VHH)
VHH: DVQLVESGGGLVQAGESLRLSCAASGDMFSSNAMAWYRQAPGKQRELVASITSGGNTNYADSVKGRFTISRDNAKNTVYLQMDSLKPEDTAVYYCNGVAYDYSWGRPRNFWGQGTQVTVSS
B15: Nb93 (VHH)
VHH: EVQLVESGGGLVQPGGSLRLSCAASGFTFSSYAMSWVRQAPGKGREWVAGITPGSGTFYADSVKGRFTISRDNAKNTLSLEINSLKPEDTALYYCAKCRQEFSWDFSSRDPDDFDYWGQGTQVTVSS
B16: Nb90 (VHH)
VHH: HVQLVESGGGLVQAGGSLRLSCAVSGRTVSSYVMGWFRQAPGKEREFVAGIGRTGMTITADSVKGRFTISRDNAKNLVYLQMNSLKSEDTAVYWCAAGVRDFAPRIDSYDYWGQGTQVTVSS
B17: Nb11 (VHH)
VHH: HVQLVESGGGLVQAGGSLRLSCAVSGASAERVGWFRRAPGKEREFVAAIGANGGSTNYLDSVKGRFTISRDNAKNTVYLQMNSLKPQDTAVYYCAARNLETFDYTYWGRGTQVTVSS
B18: Nb78 (VHH)
VHH: B2 VHH with V24I, G28S, H30N, I77V, D98N, I105T
B19: Nb48 (VHH)
VHH: B9 VHH
B20: Nb28 (VHH)
VHH: B1 VHH with T19R, T21S, S31T, E32S, A51G, S59R, S76N, S87N, I105L, D109S
B21: Nb36 (VHH)
VHH: B1 VHH
B22: Nb64 (VHH)
VHH: B4 VHH
B23: Nb82 (VHH)
VHH: B5 VHH
B24: Nb83 (VHH)
VHH: HVQLVESGGGLVQPGGSLRLSCAASGRSFNSYLMGWFRQAPGKEREFVAWISGSPHDIIRYRDSVKDRFTISRDNAKNTVYLQMNSLKPVDTAVYYCAVGSLRVGSFSPDYWGQGTQVTVSS
B25: Nb107 (VHH)
VHH: B7 VHH
B26: Nb99 (VHH)
VHH: B8 VHH
B27: Nb66 (VHH)
VHH: HVQLVESGGGLVQAGGSLRLSCAASGRTFSVNSIAWFRQAPGKEREFVATINWSGGDIYYADSVKGRFTISRDNGKNTVYLQMNSLKPTDTAVYYCAAARFYGRSIAQDYDSWGQGTQVTVSS
B28: Nb105 (VHH)
VHH: HVQLVESGGGLVQAGGSLRLSCAVSGRTFSTYGMAWFRQAPGKERDFVATITRSGETTLYADSVKGRFTISRDNAKNTVYLQMNSLKIEDTAVYYCAVRRDSSWGYSRDLFEYDYWGQGTQVTVSS
B29: Nb95 (VHH)
VHH: QVQLVESGGGLVQAGGSLRLSCAASGRTFSSYSMGWFRQAQGKEREFVATINGNGRDTYYTNSVKGRFTISRDDATNTVYLQMNSLKPEDTAIYYCAADKDVYYGYTSFPNEYEYWGQGTQVTVSS
B30: Nb97 (VHH)
VHH: HVQLVESGGGLVQAGGSLRLSCAAPGRTFSTSAMGWFRQAPGKEREFVAAIDWSNTNIHYADTVKGRFTISTDTAKNTVYLQMNNLKPEDTAVYYCAQGGWGLTQPISVDYWGKGTQVTVSS

These binders were tested against T1, SARS-CoV-2 (Wuhan-Hu-1 strain) spike glycoprotein on pseudotyped virus particles (SARS-CoV-2, UniProt P0DTC2 14-1273) (assay: cell-based or functional assay).

Row | Binder | neutralization of SARS-CoV-2 (assay not stated) [ng/mL] | IC50, pseudovirus assay [µg/mL] | IC50, virus neutralization in vitro (assay not stated) [µg/mL]
1 | B1 | ≤ 100 | – | –
2 | B2 | – | 0.0016 | –
3 | B3 | ≤ 100 | – | ~0.025

Target: T1, SARS-CoV-2 (Wuhan-Hu-1 strain) spike …
Test: cell-based or functional assay
Remark: another data set of the same source

Row | Binder | Pseudo-neut IC50 Luciferase [nM] | Pseudo-neutralization (GFP)
4 | B4 | 4.13 | –
5 | B5 | 12.2 | –
6 | B6 | – | 500 nM and 3000 nM
7 | B7 | 0.569 | –
8 | B8 | 0.524 | –
9 | B9 | – | 500 nM and 3000 nM
10 | B10 | – | > 3000 nM
11 | B11 | – | > 3000 nM
12 | B12 | 1.5 | –
13 | B13 | 6.12 | –
14 | B1 | 1.56 | –
15 | B14 | 1.57 | –
16 | B15 | 14.5 | –
17 | B16 | – | > 3000 nM
18 | B17 | 1.08 | –
19 | B2 | 0.102 | < 0.5 nM
20 | B18 | 0.509 | –
21 | B3 | 1.11 | –

What follows are binders tested against SARS-CoV-2 Munich strain spike glycoprotein on authentic virus (SARS-CoV-2) (assay: cell-based or functional assay).

Row | Binder | Authentic virus PRNT IC50 [nM]
22 | B4 | 4.88
23 | B7 | 0.181
24 | B8 | 0.452
25 | B12 | 1.72
26 | B14 | 1.23
27 | B17 | 0.8
28 | B18 | 0.766
29 | B3 | 1.5

The binders below were run against SARS-CoV-2 spike glycoprotein (Wuhan-Hu-1 strain) on pseudotyped virus particles (SARS-CoV-2 (Wuhan-Hu-1 strain), UniProt P0DTC2 14-1273) (assay: cell-based or functional assay).

Row | Binder | Pseudo-neutralization (GFP) [nM] | Pseudo-neutralization IC50 (Luciferase) [nM]
30 | B19 | 500 | –
31 | B20 | – | 6
32 | B21 | – | 7

Each binder was assayed against SARS-CoV-2 spike receptor-binding domain (RBD) (SARS-CoV-2, UniProt P0DTC2 319-541) (assay: indirect ELISA, RBD coated on plate, 4PL fit).

Row | Binder | ELISA affinity [nM]
33 | B22 | 0.45
34 | B23 | 0.86
35 | B24 | 1.51
36 | B25 | 0.76
37 | B26 | 0.35
38 | B19 | 1.08
39 | B27 | 0.33
40 | B28 | 0.26
41 | B20 | 0.92
42 | B21 | 1.04
43 | B29 | 2.28
44 | B30 | 0.32
